Where no end group is shown, it is not given here.
Assays:
[1] = biological target: IMPα2 lacking the IBB domain (residues 70-529) (UniProt P52293 70-529); test: FP
[2] = biological target: IMPα5 lacking the IBB domain (residues 73-538) (UniProt P52294 73-538); test: FP
Chain of IMPα5 lacking the IBB domain (residues 73-538) (P52294 73-538): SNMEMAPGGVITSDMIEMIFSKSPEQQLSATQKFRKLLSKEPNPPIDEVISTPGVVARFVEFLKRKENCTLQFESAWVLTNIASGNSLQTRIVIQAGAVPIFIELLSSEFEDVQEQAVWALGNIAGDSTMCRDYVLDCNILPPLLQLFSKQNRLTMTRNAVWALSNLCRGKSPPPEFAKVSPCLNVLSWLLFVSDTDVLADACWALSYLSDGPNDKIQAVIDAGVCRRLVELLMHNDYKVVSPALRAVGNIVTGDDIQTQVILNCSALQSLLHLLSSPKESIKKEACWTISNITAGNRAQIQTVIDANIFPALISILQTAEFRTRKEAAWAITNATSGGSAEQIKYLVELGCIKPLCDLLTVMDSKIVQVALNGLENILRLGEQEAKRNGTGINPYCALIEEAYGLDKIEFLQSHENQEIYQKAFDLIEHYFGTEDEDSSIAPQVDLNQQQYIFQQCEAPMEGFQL

RKARKRSHSPTKKLRYVKRRF (also: FITC-tagged) [FITC-tagged MERS-CoV ORF4b NLS peptide (residues 19-39), wild type] was tested, and the Kd [1] was 11.3 nM and the Kd [2] was 9.6 nM.

Source: article PMC8956657 (2022)
